{"source": "paper PMC6249252", "about": "“COMP and TSP-4 interact specifically with the novel GXKGHR motif only found in fibrillar collagens” (Scientific Reports, 2018)", "key": {"COMP [1]": {"target": "T1, COMP (Homo sapiens, UniProt P49747)", "T1 sequence (P49747 21-757)": "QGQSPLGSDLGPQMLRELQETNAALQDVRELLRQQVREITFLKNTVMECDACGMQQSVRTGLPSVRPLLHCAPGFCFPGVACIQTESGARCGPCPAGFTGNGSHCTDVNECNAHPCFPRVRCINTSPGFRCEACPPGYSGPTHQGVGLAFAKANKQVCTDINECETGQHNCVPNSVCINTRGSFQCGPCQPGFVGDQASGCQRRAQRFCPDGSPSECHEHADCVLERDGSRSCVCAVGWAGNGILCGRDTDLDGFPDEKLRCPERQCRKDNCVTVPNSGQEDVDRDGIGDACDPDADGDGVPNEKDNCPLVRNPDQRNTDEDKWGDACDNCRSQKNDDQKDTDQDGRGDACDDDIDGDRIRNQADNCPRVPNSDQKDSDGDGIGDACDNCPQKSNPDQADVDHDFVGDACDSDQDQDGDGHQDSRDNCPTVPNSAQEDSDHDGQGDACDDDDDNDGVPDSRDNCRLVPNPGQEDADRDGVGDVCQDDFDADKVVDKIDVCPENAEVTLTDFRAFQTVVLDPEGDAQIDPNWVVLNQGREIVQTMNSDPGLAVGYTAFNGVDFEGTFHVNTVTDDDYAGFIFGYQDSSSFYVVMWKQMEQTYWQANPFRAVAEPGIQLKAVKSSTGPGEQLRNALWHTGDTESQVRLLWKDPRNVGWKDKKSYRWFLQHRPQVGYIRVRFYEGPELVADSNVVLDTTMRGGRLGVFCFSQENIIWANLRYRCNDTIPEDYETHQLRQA", "assay": "ELISA-style binding assay, COMP on coated collagen model peptides / collagen", "settings": "for effect of additive in interaction buffer on COMP binding to peptide 5: peptide 5 coated, COMP in pure TBS-T with the indicated chemical compound, compared to pure TBS (Fig. 3b); for Kd: peptide or collagen coated at 10 µg/ml (500 ng per well) on ELISA plate, pentameric COMP at indicated concentrations, 1 h, room temperature, TBS-T with 0.25% BSA, anti-COMP antibody, four-parameter logistic fit, triplicates, read-out: Apparent KD", "procedure": "(§1) For ELISA-style binding assays, rat tail collagen I (BD Bioscience) or the indicated collagen model peptides were diluted in TBS and coated at 10 µg/ml (500 ng per well) overnight at 4 °C. Further steps were performed at room temperature. After washing with TBS-T (TBS containing 0.05% (vol/vol) Tween-20), plates were blocked for 1 h with 1% (wt/vol) BSA in TBS. Strep-tagged COMP was added at indicated concentrations in TBS-T containing 0.25% (wt/vol) BSA) and incubated for 1 h. For assays with addition of cations pure TBS-T was used as interaction buffer. After washing away unbound protein with TBS-T, bound COMP was detected with a 1:3000 dilution of a specific polyclonal antibody against bovine COMP in interaction buffer. The antibody was raised in rabbit against bovine COMP purified from articular cartilage and characterised before in various studies[46]–[48]. The TSP-4 antibody was raised in guinea pigs and was previously described and characterised[30],[49]. The primary antibodies were detected with an HRP–conjugated swine anti-rabbit (DAKO, P0399) or rabbit anti-guinea pig antibody (Sigma, A5545). Bound secondary antibodies were visualised with tetramethylbenzidine as substrate, the reaction was either measured directly at 370 nm or stopped with 10% H2SO4 and measured at 450 nm. Data were analysed using Origin 2017 and fitted using a four-parameter logistic model."}, "[2]": {"assay": "Dynamic light scattering of COMP solution with ZnCl", "type": "physicochemical", "settings": "20 °C, cumulant radius over time", "procedure": "Dynamic light scattering (DLS) was measured with a Wyatt DynaPro Nanostar using the disposable cuvettes (UVettes, Eppendorf). Data was acquired as a mean of 5 acquisitions, measured each for 5 s at a fixed temperature of 20 °C. The laser was set to auto-attenuation and the data analysed with the Dynamics software from Wyatt. Graph show the cumulant radius versus time for COMP with indicated ZnCl2 concentrations."}, "[3]": {"assay": "CD spectroscopy thermal unfolding of collagen model peptides", "type": "physicochemical", "settings": "CD spectroscopy at 210 nm, heated at 1 °C/min, approx. 0.1 mg/ml, 1 mm cell, 4 parameter logistic fit", "procedure": "CD spectra of the col2p5 peptide and its derivatives were measured using a Jasco J–715 equipped with a peltier-element cuvette cooler. The samples were heated at 1 °C/min in a 1 mm path length quartz cell at approx. 0.1 mg/ml. Thermal unfolding was measured in a range between 20 °C and 70–90 °C and specific ellipticity recorded at 210 nm ever 1 °C. Additionally, every 5 °C far-UV spectra (200–250 nm) were recorded in triplicates. Data was fitted with a 4 parameter logistic fit using Origin 2017[45]."}, "TSP-4": {"target": "TSP-4 (UniProt P35443)", "sequence (P35443 27-961)": "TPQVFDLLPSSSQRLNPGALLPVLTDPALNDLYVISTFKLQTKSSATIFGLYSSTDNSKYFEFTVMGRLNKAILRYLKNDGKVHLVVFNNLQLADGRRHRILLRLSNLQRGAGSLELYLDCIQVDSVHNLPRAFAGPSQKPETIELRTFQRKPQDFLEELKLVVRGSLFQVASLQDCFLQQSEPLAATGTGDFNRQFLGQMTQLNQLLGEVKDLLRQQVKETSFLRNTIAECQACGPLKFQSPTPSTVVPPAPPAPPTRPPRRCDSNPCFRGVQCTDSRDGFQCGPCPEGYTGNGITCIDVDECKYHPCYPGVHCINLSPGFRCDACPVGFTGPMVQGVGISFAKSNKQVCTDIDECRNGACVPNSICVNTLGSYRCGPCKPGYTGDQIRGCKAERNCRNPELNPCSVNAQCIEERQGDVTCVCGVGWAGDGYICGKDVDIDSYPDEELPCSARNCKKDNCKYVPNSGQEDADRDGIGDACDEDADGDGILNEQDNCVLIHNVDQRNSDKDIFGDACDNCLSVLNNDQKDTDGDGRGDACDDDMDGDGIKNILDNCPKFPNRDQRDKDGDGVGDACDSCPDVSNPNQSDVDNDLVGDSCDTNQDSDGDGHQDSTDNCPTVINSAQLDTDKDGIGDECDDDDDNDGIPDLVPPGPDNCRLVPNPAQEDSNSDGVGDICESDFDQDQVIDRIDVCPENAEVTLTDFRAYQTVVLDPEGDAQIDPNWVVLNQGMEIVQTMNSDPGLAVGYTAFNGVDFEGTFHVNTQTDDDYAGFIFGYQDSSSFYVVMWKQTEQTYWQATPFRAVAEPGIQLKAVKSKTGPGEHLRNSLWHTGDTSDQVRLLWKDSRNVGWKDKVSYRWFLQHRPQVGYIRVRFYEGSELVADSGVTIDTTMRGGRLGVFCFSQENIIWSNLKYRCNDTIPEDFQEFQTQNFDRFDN", "assay": "ELISA-style binding assay, TSP-4 on coated GVKGHR foldon construct", "settings": "GVKGHR foldon construct coated to ELISA plate, incubated with TSP4, anti-TSP4 antibody; fitted; triplicates", "procedure": "as §1"}, "COMP [4]": {"target": "T1, COMP", "settings": "read-out: dissociation constant for COMP reported for collagen II; cited from earlier work", "procedure": "To elucidate the binding site of COMP on the collagen II helix we incubated pentameric COMP at 200 nM concentration with our generated collagen II foldon library (Fig. 2). […] To confirm our finding and get proper binding affinities we coated the peptide 5 and incubated it with indicated concentration of COMP (Fig. 3a). The dissociation constant for COMP and pep5 (19.3 ± 12 nM) was slightly higher than reported for collagen II (1.72 ± 0.16 nM)[10]. ..."}}, "note": "Like-named read-outs stand apart in the source and are kept apart here."}
{"compound": "O=C(O)CN(CCN(CC(=O)O)CC(=O)O)CC(=O)O", "note": "[EDTA, reference compound]", "values": [{"measurement": "effect of additive in interaction buffer on COMP binding to peptide 5", "setting": "COMP [1]", "value": "reduced the binding significantly"}]}
{"compound": "c1cnc2c(c1)ccc1cccnc12", "note": "[phenanthroline, 1,10-phenanthroline, reference compound]", "values": [{"measurement": "effect of additive in interaction buffer on COMP binding to peptide 5", "setting": "COMP [1]", "value": "does not reduce the binding compared to pure TBS"}]}
{"compound": "[Cl-].[Cl-].[Zn+2]", "note": "[zinc, reference compound]", "values": [{"measurement": "effect of additive in interaction buffer on COMP binding to peptide 5", "setting": "COMP [1]", "value": "increased the affinity towards the peptides"}]}
{"compound": "COMP: recombinant pentameric cartilage oligomeric matrix protein, Strep-tagged, expressed in HEK293 (EBNA) cells", "values": [{"measurement": "hydrodynamic radius via DLS (aggregation)", "setting": "[2]; 0.0 mM versus 0.1 mM ZnCl", "value": "could not detect any difference"}, {"measurement": "hydrodynamic radius via DLS (aggregation)", "setting": "[2]; addition of 1 mM ZnCl", "value": "starts to aggregate dramatically"}]}
{"compound": "GARGFPGTPGLPGVKGHRGYPGLDGAK [peptide 5, E. coli expressed collagen II library peptide in NStrep-(GPP)6-GUEST-(GPP)6-foldon context]", "values": [{"measurement": "Melting point (°C)", "setting": "[3]", "value": "36.1 ± 0.5", "unit": "°C"}, {"measurement": "Kd", "setting": "COMP [1]", "value": "19.3 ± 12.4", "unit": "nM"}]}
{"compound": "GEAGEPGERGLKGHRGFTGLQGLPGPP [peptide 52, library peptide with the C-terminal GLKGHR motif of collagen II, foldon context]", "values": [{"measurement": "Kd", "setting": "COMP [1]", "value": "4.1 ± 0.8", "unit": "nM"}]}
{"compound": "GLPGPKGHR", "values": [{"measurement": "Melting point (°C)", "setting": "[3]", "value": "52.5 ± 0.6", "unit": "°C"}, {"measurement": "Kd", "setting": "COMP [1]", "value": "2.26 ± 0.39", "unit": "nM"}]}
{"compound": "GLPGVKGHP", "values": [{"measurement": "Melting point (°C)", "setting": "[3]", "value": "47.9 ± 0.4", "unit": "°C"}]}
{"compound": "GLPGVKGHR [unique region of pep5 in N-Strep-(GPP)6-GUEST-(GPP)6-foldon context]", "values": [{"measurement": "Melting point (°C)", "setting": "[3]", "value": "48.2 ± 0.6", "unit": "°C"}, {"measurement": "COMP binding to minimal motif peptides (ELISA signal)", "setting": "COMP [1]; COMP at 400 nM, one-point measurements (Fig. 4a), or at indicated concentrations (Fig. 4b)", "value": "sufficient for binding"}]}
{"compound": "GLPGVPGHR", "values": [{"measurement": "Melting point (°C)", "setting": "[3]", "value": "51.1 ± 0.3", "unit": "°C"}]}
{"compound": "GVKGHR", "values": [{"measurement": "Melting point (°C)", "setting": "[3]", "value": "56.5 ± 0.6", "unit": "°C"}, {"measurement": "Kd", "setting": "COMP [1]", "value": "1.61 ± 0.29", "unit": "nM"}, {"measurement": "Kd", "setting": "TSP-4", "value": "0.56 ± 0.05", "unit": "nM"}]}
{"compound": "collagen II: collagen II, literature value for COMP binding", "values": [{"measurement": "Kd", "setting": "COMP [4]", "value": "1.72 ± 0.16", "unit": "nM"}]}
